Assay results taken from paper PMC5855643.

How the values were obtained:
[1] = molecular target: FcγRIIIa receptor, F158 (low affinity) variant (UniProt P08637)
[2] = molecular target: FcγRIIIa receptor, V158 (high affinity) variant

Row | Substance | EC50 of the ADCC reporter bioassay, Daudi target cells, F/F 158 variant effector cells [1] [ng/mL] | EC50 of the ADCC reporter bioassay, Wil2-S target cells, F/F 158 variant effector cells [1] [ng/mL] | EC50 of the ADCC reporter bioassay, Daudi target cells, V/V 158 variant effector cells [2] [ng/mL] | EC50 of the ADCC reporter bioassay, Wil2-S target cells, V/V 158 variant effector cells [2] [ng/mL]
1 | reglycosylated plant-made rituximab (NbRTX^A2G2) (antibody) | 7 | 4.4 | 2.9 | 2.7
2 | Rituxan^® (rituximab, innovator product) (antibody) | 22 | 18 | 12 | 15.7
